This test has as its target human CD33 (full length, CD33M) (human) (UniProt P20138). In words: cell-based or functional assay.

This is an account of results in patent publication US20200318071A1.

Chain of UniProt P20138 (P20138 18-364 limits assumed): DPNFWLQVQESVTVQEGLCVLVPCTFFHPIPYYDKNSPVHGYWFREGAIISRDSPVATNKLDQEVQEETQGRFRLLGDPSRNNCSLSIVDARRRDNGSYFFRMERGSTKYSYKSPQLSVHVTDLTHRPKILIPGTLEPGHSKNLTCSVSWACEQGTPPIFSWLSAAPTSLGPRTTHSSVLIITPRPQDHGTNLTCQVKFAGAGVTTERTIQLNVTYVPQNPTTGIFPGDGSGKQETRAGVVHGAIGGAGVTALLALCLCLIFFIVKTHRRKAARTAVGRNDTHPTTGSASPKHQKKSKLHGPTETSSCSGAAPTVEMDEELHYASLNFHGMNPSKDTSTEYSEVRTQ

Substance gemtuzumab ozogamicin (antibody) came in with an IC50 of GO cytotoxicity, HL-60 cells (viable cell number, Celltiter Glo, 72 hours) of 0.0355 µg/mL and an IC50 of GO cytotoxicity, THP-1 cells (viable cell number, Celltiter Glo, 72 hours) of 0.0163 µg/mL.
